# The nanobody polyreactivity screen of Harvey et al. (2022)
# Test: yeast display, Sf9 membrane polyspecificity reagent, FACS + sequencing; frameworks hold sequencing errors
# Procedure, shortened: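 Synthetic nanobody libraries on Saccharomyces cerevisiae BJ5465 were galactose-induced for 36–48 hours, stained 1 hour at 4 °C with 10% biotinylated, detergent-solubilized Sf9 membrane reagent and enriched on streptavidin microbeads. FACS then separated cells into low and high (top ~1%) gates by anti-HA (expression) and streptavidin (reagent binding) fluorescence. Genes were colony-PCR amplified, MiSeq 2 × 250 sequenced and CDR-length filtered. A clone's polyreactivity label is that of its gate of origin.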
row,Sequence,polyreactivity (PSR sort gate)
1,QVQLVESGGGLVQAGGSLRISCADSGSIFHPNAMGWYRQAPGKERELVAAISIGGDTYYADSVKGRFTISRDNAKNTVYLQMNSLKPEDTAVYYCAVTYVGHVYEYYYWGQGTQVTVSS,low polyreactivity
2,QVQLVESGGGLVQAGGSLRISCAGSGSIFSRNAMGWYSQAPGTERELVAAITGSGSSTYYADSVKGRFTISRDNAKNTVYLQMNSLKPEDTAGYYCNAARVYLSEWGQGTQGTVSS,high polyreactivity
3,QVQLVESGGGLVQAGGSLRISCASSGRTFWGNAKGRYRQAPGKERELVAGITKSGGTTYADSVKGRFTISRDNAKKTVYLQMNSLKPEDTAVYYCNAVRWQKGDYWGQGTQVTVSS,high polyreactivity
4,QVQLVESGGGLVQAGGSLRISCASSGSIFYLNAMGWYRQAPGKERELVAAISRRGGTTSYADSVKGRFTISRDNAKNTVFLQMNSLKPEDTAVYYCAKRTKPSKNYYYWGQGTQVTVSS,high polyreactivity
5,QVQLVESGGGLVQAGGSLRISCASSVRILGVYFMGWYRQAPGKERELVAAISGGGRTNYADSVKGRFTISRDNAKNTVYFQMNRLNPEDTAVYYCNAERPYQFYQCIYSWYYYWGQGTQVTVSS,low polyreactivity
6,QVQLVESGGGLVQAGGSLRISCDASGRTFYWNAMGWYRQAPGKEREFVAAITNTAVSTYYADSVKGRFTISRDNAKNTVYLQMNSLKPEATAVYYCAKSGNAGYRTYLRDYWGQGSQVTVSS,low polyreactivity
7,QVQLVESGGGLVQAGGSLRISFAASGSTFDIYVMGWYRQAPGKERELVAAISRVGNTSYADSVKGRFTISRDNAKNTVYLQMNSLKPEDKAVYYCAADAPSWYDRQYDYWGKGTQVTVSS,low polyreactivity
8,QVQLVESGGGLVQAGGSLRISSAASGIIFPWYYMGWYRQAPGKESELVAGITDGGDTTYADSVKWRFTISRDYAMNNVYLEMNRLKPEDTAVYYCAADIGYGYWHFDYLGQGTQVTVSS,low polyreactivity
9,QVQLVESGGGLVQAGGSLRISSAASGSTNYPNAMGWYRQAPGKERELVAVIRWSGGSTYYADSVKGRFTISRDNAKNTVYLQMNSLKPEDTAVYYCNADFYRVAYLRRYSHFDYWGQGTQVTVSS,high polyreactivity
10,QVQLVESGGGLVQAGGSLRITCAASGSIYKSNAMGWYRQAPGKEREFVAAITWSGGSTYYADSVKGRFTISRDNAKNTVDLKMNSLKPEDTAVCYCAATQYRSDGWRYDYWGQGTQVTVSS,high polyreactivity
11,QVQLVESGGGLVQAGGSLRITCAASGYTFGAYSMGWYRQAPWKERELVAAITVRAGRTYYADSVKGRFTISRDNAKNTVYLQMNSLKPEDTAVYYCAADGYLLYVQHPNGRRYDYWGQGTQVTVSS,low polyreactivity
12,QVQLVESGGGLVQAGGSLRITCAGSGRTFFGYAMGWYRQAPGKERELVAAITRGGSTNYADSVKGRFTISLDNGKNTLYLQMNSLKPEDSAVYYCAVGVPTTFKNRRYFRMDYWGQGTQGTVSS,high polyreactivity
13,QVQLVESGGGLVQAGGSLRLICAASGATFVDYTMGWYRQAPGKERELVAAITVSAGSTYYADSVKGRFTISRDNAKNTVYLQMNSLKPEDTAVYYCAKATSSFYHYRYDYWGQGTQVTVSS,low polyreactivity
14,QVQLVESGGGLVQAGGSLRLICAASGFIFGLNAIGWYRQAPGKERELVAAIRSASSTNYADSVKGRFTISRDNAKNTVYLQMNSLKPEDTAVYYCAAEDFTRQFEYWGQGTQVTVSS,low polyreactivity
15,QVQLVESGGGLVQAGGSLRLICAASGFIFHSYAMGWYRQAPGKERELVARITIGDSTKYADSVKGRFTISRDNAKNTVYLQMNSLKPEDTAVYYCAADGWRYIAYYQGFRRMNYWGQGTQVTVSS,high polyreactivity
16,QVQLVESGGGLVQAGGSLRLICAASGFIFKGYAMGWNRQAPGKERELVAAISSSGTSTYYADSVKGRFTISRDNAKNTVYLQMNSLKPEDTAVYYCAADLASYAYRYDFWGQGTQVTVSS,high polyreactivity
17,QVQLVESGGGLVQAGGSLRLICAASGFIFNKNAMGWYRQAPGKERELVAAISQIGGTTYYADSVKGRFTISRVNAKNTVYLQMNSLKPEDTSVYYCAASRRVQSDYWGQGTQVTVSS,high polyreactivity
18,QVQLVESGGGLVQAGGSLRLICAASGFIFPQNAMGWYRQAPGKERELLAAISKRGGSTYYADSVKGRFTISRDYAKNTVYLQMNSLKPEDTAVYYCAAGYRTRRGLGYYYWGQGTQVTVSS,high polyreactivity
19,QVQLVESGGGLVQAGGSLRLICAASGFIFTTYAMGWYRQAPGKEREVVAAISSSGTTYYADSVKGRFTISRDNAKNTVYLQMNSLKPEDTAVYYCAARRQFRSYQQRLYYWGQGTQVTVSS,low polyreactivity
20,QVQLVESGGGLVQAGGSLRLICAASGFIFVYYVMGWYRQAPGKERELVAAITQSGGSTYYADSVKGRFTISRDNAKNTVYLQMNSLKPEDTAVYYCAAYRRTTGGGYDYWGQGTQVTVSS,high polyreactivity
21,QVQLVESGGGLVQAGGSLRLICAASGFIFYYYAMGWYRQAPGKERQVVAAITWSGGITYYADSVKGRFTISRDNAKNTVYLQMISMKPEDTAVYYCATGYEYYGYSGSRRDYWGQGTQVTVSS,low polyreactivity
